Measurements published in patent publication US20260348975 (published 2026).
Values belong to the binder of their own block, whether it stands above or below them.

Legend:
Assay in all cases: SPR
[1] = molecular target: T1, reduced IL-33 (human)
T1 chain: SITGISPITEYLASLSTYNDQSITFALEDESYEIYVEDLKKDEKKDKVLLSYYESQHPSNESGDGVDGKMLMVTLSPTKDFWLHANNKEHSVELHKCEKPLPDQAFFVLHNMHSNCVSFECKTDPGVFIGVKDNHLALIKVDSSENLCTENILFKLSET

[2] = molecular target: T2, IL-33/sST2 complex (human)
T2 chain 1: T1 chain
T2 chain 2: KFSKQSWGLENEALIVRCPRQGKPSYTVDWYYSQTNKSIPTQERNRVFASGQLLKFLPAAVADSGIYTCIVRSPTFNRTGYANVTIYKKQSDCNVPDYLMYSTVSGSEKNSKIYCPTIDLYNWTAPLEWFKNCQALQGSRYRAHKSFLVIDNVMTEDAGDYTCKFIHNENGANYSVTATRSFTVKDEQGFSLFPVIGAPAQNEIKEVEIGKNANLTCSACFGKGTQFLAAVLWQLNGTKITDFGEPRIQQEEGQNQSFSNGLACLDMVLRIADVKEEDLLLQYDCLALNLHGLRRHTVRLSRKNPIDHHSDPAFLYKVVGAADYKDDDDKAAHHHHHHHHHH

[3] = molecular target: T3, oxidized IL-33 (human)
T3 chain: T1 chain

Kd [1]: 0.895 nM
Kd [2]: 26.5 nM
B1: AB1070008 (antibody, V domains shown)
VH: QVQLQQSGPELVKPGASVKTSCKASGYSFTSYYIHWVKQRPGQGLEWIGWIYPGSGNTKYNEKFKGKATLTADTSSSTAFMQLSSLTSEDSAVYYCASGFHYYGRMDYWGQGTTLTVSS
VL: DIQMTQSPSSLSASLGERVSLTCRASQEISGYLSWLQQKPDGTIKRLIYSTSTLDSGVPKSFSGSRSGSDYSLTISSLESEDFADYYCLQYASSPWTFGGGTKLEIK

Kd [3]: 1.83 nM
B2: AB1070141 (antibody, V domains shown)
VH: QVQLQQSGAELMKPGASVKLSCKATGYIVTDYWIEWVKQRPGHGLEWIGEILPRSDSTNYNEKFKVRATFTADTSSNTAYMQLSSLTTEDSAIYYCASHYHYDGSLFVYWGQGTLVTVSS
VL: DIVMSQSPSSLAVSAGEKVTMSCKSSQSLLNSRTRKNYLAWYQQKPGQSPKLLIYWASTRESGVPDRFTGSGSGTDFTLTISSVQAEDLAVYYCKQSYSLPTFGGGTKLEIK

Kd [1]: 0.068 nM
B3: AB1070019 (antibody, V domains shown)
VH: QVQLQQSGAELAKPGASVKMSCKASGYTFTRYWMHWIKQRPGQGLEWIGYINPYSGYTEYNQKFKDKATLTADKSSSTAYMQLSSLTSEDSAVYYCARYSYYTYDGRGYAMDYWGQGTSVTVSS
VL: DIVMTQSQKFMSTSVGDRVSVTCKASQNVGTNVAWYQQKPGQSPKALIYSASYRYSGVPDRFTGSGSGTDFTLTISNVQSEDLAEYFCQQYNSYPFTFGSGTKLEIK
